These results are taken from paper PMC10873366, “DNA binding redistributes activation domain ensemble and accessibility in pioneer factor Sox2” (Nature Communications, 2023).

The experiment has as its target T1, Sox2 C-terminal intrinsically disordered region (C-IDR).
T1 chain: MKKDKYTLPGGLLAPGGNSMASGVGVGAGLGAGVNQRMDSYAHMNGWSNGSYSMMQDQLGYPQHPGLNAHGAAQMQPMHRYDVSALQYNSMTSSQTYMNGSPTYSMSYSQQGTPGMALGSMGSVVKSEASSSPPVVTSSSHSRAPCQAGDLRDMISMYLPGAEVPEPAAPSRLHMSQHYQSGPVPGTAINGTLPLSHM
As to the kind of experiment: NMR titration; 15N-labelled C-IDR titrated with unlabelled N-DBD; 1H15N HSQC chemical shift changes of highly perturbed residues fitted to a 1:1 binding equation; 20 mM NaH2PO4, 50 mM NaCl, 5 mM DTT, pH 5.5, 15 °C. The following applies: both partners purified.

One may read the Kd as the free concentration of one partner at which half of the binding sites on the other are occupied at equilibrium, for simple one-to-one binding.

B1: Sox2 N-terminal domain and DBD (N-DBD) (domain or fragment)
chain: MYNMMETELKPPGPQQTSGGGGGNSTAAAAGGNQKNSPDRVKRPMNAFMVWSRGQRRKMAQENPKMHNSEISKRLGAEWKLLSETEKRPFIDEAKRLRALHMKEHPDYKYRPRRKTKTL
modifications: Limits are not printed. They are inferred from 109 expected HSQC peaks (119 residues minus 9 Pro and the N-terminal Met) and from the C-IDR starting at 120. The NMR sample was 15N(/13C)-labelled or …
On to B1, for which the Kd amounted to 80 ± 4 µM.
